Numbering of substitutions follows the chain as printed.
Assays:
MutS [1] = biological target: T1, MutS (Escherichia coli, UniProt P23909 1-853); assay: FRET equilibrium titration
T1 sequence: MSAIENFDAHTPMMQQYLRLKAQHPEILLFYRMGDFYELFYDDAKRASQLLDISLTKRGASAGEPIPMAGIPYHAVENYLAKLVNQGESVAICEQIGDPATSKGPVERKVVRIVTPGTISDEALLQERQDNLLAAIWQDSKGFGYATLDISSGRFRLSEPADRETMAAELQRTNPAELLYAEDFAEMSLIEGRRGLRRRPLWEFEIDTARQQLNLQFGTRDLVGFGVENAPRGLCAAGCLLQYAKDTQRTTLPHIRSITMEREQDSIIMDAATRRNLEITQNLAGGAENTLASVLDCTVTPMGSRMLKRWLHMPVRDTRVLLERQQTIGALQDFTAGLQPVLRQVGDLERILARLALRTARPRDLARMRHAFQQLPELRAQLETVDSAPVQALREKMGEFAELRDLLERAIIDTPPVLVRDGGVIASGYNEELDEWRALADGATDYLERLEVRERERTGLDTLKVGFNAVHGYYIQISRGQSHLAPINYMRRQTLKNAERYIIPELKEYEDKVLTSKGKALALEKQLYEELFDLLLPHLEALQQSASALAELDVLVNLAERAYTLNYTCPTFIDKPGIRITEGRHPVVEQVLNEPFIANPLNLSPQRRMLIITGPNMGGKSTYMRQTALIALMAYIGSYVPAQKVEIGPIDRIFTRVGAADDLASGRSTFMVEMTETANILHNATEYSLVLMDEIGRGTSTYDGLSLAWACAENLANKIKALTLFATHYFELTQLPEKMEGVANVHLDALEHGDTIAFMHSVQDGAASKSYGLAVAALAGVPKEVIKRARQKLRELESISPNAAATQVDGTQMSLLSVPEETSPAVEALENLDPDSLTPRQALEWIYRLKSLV

MutS [2] = biological target: T1, MutS; assay: FRET equilibrium titration; remark: listed apart in the source
mutS-A842E = biological target: T2, mutS-A842E (Escherichia coli, UniProt P23909 1-853, A842E); assay: EMSA
T2 sequence: T1 sequence with A842E

MutS [3] = biological target: T1, MutS; assay: FRET equilibrium titration; remark: listed apart in the source
MutS [4] = biological target: T1, MutS; assay: stopped-flow FRET kinetics
MutS [5] = biological target: T1, MutS; assay: stopped-flow FRET kinetics; remark: listed apart in the source
MutS [6] = biological target: T1, MutS; assay: stopped-flow FRET kinetics; remark: listed apart in the source
MutS [7] = biological target: T1, MutS; assay: stopped-flow FRET kinetics; remark: listed apart in the source
MutS [8] = biological target: T1, MutS; assay: stopped-flow FRET kinetics; remark: listed apart in the source
MutS [9] = biological target: T1, MutS; assay: stopped-flow FRET kinetics; remark: listed apart in the source

B1: 30-1ΔT (dsDNA)
DNA 1: AACTGCCAGGCACCAGTGTCAGCGTCGTAT
DNA 2: ATACGACGCTGACACTGGTGCCTTGGCAGTT
Kd (MutS [1]): 0.062 µM
Kd (MutS [2]): 0.056 µM
binding result (mutS-A842E): binds
Kd (MutS [3]): 0.123 µM
Kd (MutS [4]): 0.137 µM
Kd (MutS [5]): 0.091 µM
Kd (MutS [6]): 0.05 µM
Kd (MutS [7]): 0.027 µM
Kd (MutS [8]): 0.321 µM
Kd (MutS [9]): 0.039 µM

Source: PMC2666446 (Journal of molecular biology, 2008)
